# Laboratory results taken from patent US20260365734 (published 2026).
# Changes are numbered by the printed parent chain.
# T1: human VEGFA (human, UniProt P15692)
# T1 chain: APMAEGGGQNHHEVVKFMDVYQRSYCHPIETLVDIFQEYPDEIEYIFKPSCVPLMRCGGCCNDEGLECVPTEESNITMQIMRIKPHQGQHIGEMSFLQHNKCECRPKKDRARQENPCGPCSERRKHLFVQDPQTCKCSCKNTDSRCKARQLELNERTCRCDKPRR
# B1: R2-1F4 (antibody, V domains shown)
# VH: QVQLVESGGGLVQAGGSLRLSCAASGFSASDVVMAWYRQAPGKQREFVANIAASSTTRYADSVKGRFTISRDDAKNTVSLQMNSLKSEDTAVYYCNALVWNGSSYNNWGQGTQVTVSS
# B2: R3-5F8 (antibody, V domains shown)
# VH: EVQLVESGGGLVQPGGSLRLSCVASGFDFSDTHMGWYRQAPGKERELVAIITSGGSTDYVDSVKGRFTISRDNAKNTVYLQMNSLKFEDTAVYYCNARRTTIYWGQGTQVTVSS
# B3: R3-3H1 (antibody, V domains shown)
# VH: B2 VH with E1Q, V2L, L11V, V23A, F27I, E44Q, T100S
# B4: 4D2-hv1-NT (antibody, V domains shown)
# VH: QVQLVESGGGLVKPGGSLRLSCAASGFSASDVVMAWYRQAPGKQREFVANLGASSTTRYADSVKGRFTISRDNAKNSLYLQMNSLRAEDTAVYYCNALVWTGSSYNNWGQGTQVTVSS
# B5: 4E2-hv1-NT (antibody, V domains shown)
# VH: B4 VH with Q1E, S30G, L51I, G52A
# B6: 4E2-hv2-NT (antibody, V domains shown)
# VH: B4 VH with Q1E, S30G, A49S, L51I, G52A
# B7: 1F4-hv7-NT (antibody, V domains shown)
# VH: B4 VH with L51I, G52A
# B8: 7H3 (antibody, V domains shown)
# VH: QVQLVESGGGVVQPGRSLRLSCAASGFTFGPYAMHWVRQAPGKERELVAAIWPSGSITYYADSVKGRFTISRDNSKNTLYLQMNSLRAEDTAVYYCAFGSPTGSITYWGQGTLVTVSS
# B9: 1G1 (antibody, V domains shown)
# VH: QVQLVESGGGVVQPGRSLRLSCAASGLSFSYGTMAWVRQAPGKELELVAALSAGGTITYYADSVKGRFTISRDNSKNTLYLQMNSLRAEDTAVYYCAALGGYSGGSKYPYYDYWGQGTLVTVSS
# B10: 4B11 (antibody, V domains shown)
# VH: QVQLVESGGGVVQPGRSLRLSCAASGLSFSQYEMHWVRQAPGKEREFVAAISSSGISTYYADSVKGRFTISRDNSKNTLYLQMNSLRAEDTAVYYCAAELVDYHRWGYDYWGQGTLVTVSS
# B11: 1C8 (antibody, V domains shown)
# VH: QVQLVESGGGVVQPGRSLRLSCAASGRSFSRYAMAWVRQAPGKERESVAVIGSGGGRTYYADSVKGRFTISRDNSKNTLYLQMNSLRAEDTAVYYCAARIYRVVGSGTYPAGYDYWGQGTLVTVSS
# B12: R2-4E2 (antibody, V domains shown)
# VH: B1 VH with Q1E, L11S, A14D, R19T, S30G, A60T, D73N, S79Y
# B13: R2-4D2 (antibody, V domains shown)
# VH: B1 VH with I51L, A52G
# Target: T2, human PD-L1 ECD (human, UniProt Q9NZQ7)
# Assay: BLI
# T2 sequence (Q9NZQ7 19-238): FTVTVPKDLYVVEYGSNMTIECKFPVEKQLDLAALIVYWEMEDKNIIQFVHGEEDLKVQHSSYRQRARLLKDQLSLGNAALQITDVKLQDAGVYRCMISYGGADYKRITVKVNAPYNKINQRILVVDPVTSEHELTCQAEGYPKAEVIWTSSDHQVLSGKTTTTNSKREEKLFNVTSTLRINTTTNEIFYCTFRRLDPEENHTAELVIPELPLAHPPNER
row,Binder,Kd [nM]
1,B1,2.04
2,B2,0.054
3,B3,1.2

# Target: T2, human PD-L1 ECD
# Assay: BLI
# Remark: another data set of the same source
row,Binder,Kd [nM]
1,B4,4.54
2,B5,4.64
3,B6,4.75
4,B7,6.39

# Target: cynomolgus PD-L1 (cynomolgus)
# Assay: BLI
# Chain of cynomolgus PD-L1 (cynomolgus) (chain, as listed by the source): as the sequence (Q9NZQ7 19-238) above, with A33T, A34S, S62N, R68Q, Q82R, F173L, T185A, T192I, H215L counted along it
row,Binder,Kd [nM]
1,B4,3.76
2,B5,3.4
3,B6,3.24
4,B7,3.87

# Target: T3, human PD-L1 (cell surface) (human, UniProt Q9NZQ7)
# Assay: FACS, CHO-h-PD-L1 cells
# T3 sequence (Q9NZQ7 19-238): as the sequence (Q9NZQ7 19-238) above
row,Binder,EC50 [nM]
1,B4,0.143
2,B5,0.11
3,B6,0.11
4,B7,0.13

# Target: T1, human VEGFA
# Assay: BLI
row,Binder,Kd [nM]
1,B8,2.08
2,B9,14.4
3,B10,2.82
4,B11,2.61

# Target: T3, human PD-L1 (cell surface)
# Assay: FACS, T24 cells
row,Binder,EC50 [nM]
1,B4,0.043
2,B5,0.048
3,B6,0.047
4,B7,0.047

# Target: T3, human PD-L1 (cell surface)
# Assay: FACS, T24 cells
# Remark: another data set of the same source
row,Binder,EC50 [nM]
1,B1,0.059
2,B12,0.05
3,B2,0.503
4,B13,0.041

# Target: T3, human PD-L1 (cell surface)
# Assay: FACS
row,Binder,EC50 [nM]
1,B1,0.22
2,B12,0.148
3,B2,0.53
4,B3,0.815
5,B13,0.202

# Target: T3, human PD-L1 (cell surface)
# Assay: FACS, NCI-H441 cells
row,Binder,EC50 [nM]
1,B4,0.065
2,B5,0.039
3,B6,0.054
4,B7,0.056
